Measured values: patent publication EP4414386A1 (dated 2024)

Target: T1, PSMA antigen (UniProt Q04609 1-750, limits assumed)
T1 construct: whole, on cells; On PC3-PIP cells in FACS and cell ELISA; in SPR captured on the CM5 chip from the cellular lysate of PC3-PIP by the 7E11 MAb; also called the antigen
Assay: SPR Biacore T200, single-cycle kinetics; PSMA captured from PC3-PIP lysate by 7E11 on CM5 chip

T1 sequence (Q04609 whole entry): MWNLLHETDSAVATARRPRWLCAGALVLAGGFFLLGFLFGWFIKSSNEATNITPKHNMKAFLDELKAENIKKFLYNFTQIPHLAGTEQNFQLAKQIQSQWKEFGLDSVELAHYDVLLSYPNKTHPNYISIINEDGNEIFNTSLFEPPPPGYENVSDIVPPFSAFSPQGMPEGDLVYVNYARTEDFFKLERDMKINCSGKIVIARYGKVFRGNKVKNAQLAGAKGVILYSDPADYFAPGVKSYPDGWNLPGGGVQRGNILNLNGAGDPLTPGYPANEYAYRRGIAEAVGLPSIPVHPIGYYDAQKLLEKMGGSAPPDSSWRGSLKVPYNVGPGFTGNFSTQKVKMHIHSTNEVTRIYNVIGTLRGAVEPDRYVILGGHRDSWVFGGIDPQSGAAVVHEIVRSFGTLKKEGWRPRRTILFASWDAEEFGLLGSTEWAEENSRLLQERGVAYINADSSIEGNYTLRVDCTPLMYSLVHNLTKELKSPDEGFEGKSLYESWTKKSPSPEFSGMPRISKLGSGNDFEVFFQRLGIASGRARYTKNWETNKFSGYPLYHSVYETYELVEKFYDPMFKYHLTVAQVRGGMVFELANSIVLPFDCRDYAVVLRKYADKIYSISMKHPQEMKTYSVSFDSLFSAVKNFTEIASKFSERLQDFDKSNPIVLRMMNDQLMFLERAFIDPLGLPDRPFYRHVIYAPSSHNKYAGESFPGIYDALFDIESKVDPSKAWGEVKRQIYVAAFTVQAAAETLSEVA

B1: scFv D2B produced in prokaryotic system (bacteria) (scFv)
scFv: EVKLQESGPGLVKPSQSLSLTCSVTGYSITSGYYWNWIRQFPGNKLEWMGSISFDGNNNYNPSLRNRISITRDTSKNQFFLKLNSVTTEDTATYYCAREGDYYGSSFFTYWGQGTLVTVSSGGGGSGGGGSGGGGSALDIVMTQSPASLSASVGETVTLTCGASENIYGALNWYQRKQGKSPQLLIYGATNLADGMSSRFSGSGSGRQYSLKISSLHPDDVATYYCQNVFRTYTFGGGTKLEIKRAAAHHHHHH
notes: also called ScFvD2B from bacteria; scFv produced in bacteria; not shown: Myc tag
Kd: 2.3 nM | RU max: 34 RU

B2: scFv D2B produced by synthesis (folded scFv D2B compound 27) (scFv)
scFv: B1 scFv
modifications: pyroglutamic acid (<E) at position 1
notes: Fully chemically synthesised, 254 residues, two disulfide bonds (C22-C96 and C161-C226); segment 5 is C226-H254; also called ScFvD2B of synthesis; scFv produced by synthesis
Kd: 1.9 nM | RU max: 34 RU

B3: scFv D2B produced in eukaryotic mammalian cells (scFv)
scFv: B1 scFv
notes: also called ScFvD2B from eukaryote; scFv produced in eukaryotic mammalian cells
Kd: 2.8 nM | RU max: 68 RU
